Laboratory results: patent US12551542B2, “Polymeric nanoparticles that target liver sinusoidal endothelial cells to induce antigen-specific immune tolerance” (The Regents of the University of California, priority 2019, dated 2026)
Each block holds one molecule with its values, some of them ahead of it. No end group written: not given here.

Legend:
[1] = test system: LSECs; test: NP-associated FITC-OVA uptake, flow cytometry; type: cell-based, mouse
Procedure: Following OVA-FITC labeling, the antigen was encapsulated in NPs as described in Example 1 Materials and Methods. LSECs and KUP5 cells were incubated with FITC-OVA or NP^FITC-OVA for the indicated time periods. After being washed in PBS, the % FITC-OVA^+ cells and the cellular mean fluorescence intensity (MFI) were analyzed in a BD LSRII (IMED) analytic flow cytometer by Flowjo® software. Panels (A, B): Kinetics of NP-mediated antigen uptake in LSECs and KUP5 cells, respectively. Panels (C, D): Histograms depicting the % and MFI of antigen-positive LSECs. Data are expressed as the mean±SEM (n=6); *p<0.05; **p<0.01; ***[…] (one-way ANOVA followed by Tukey's test).
To quantitatively evaluate antigen uptake into cells, OVA was labeled with FITC as previously described. Following the incorporation of FITC-OVA into NPs, LSECs and KUP5 cells were incubated with FITC-OVA or the labeled particles for 24 h. Cells were collected, washed with PBS, and analyzed in a BD LSRII (IMED) analytic flow cytometer. Flowjo software (Ashland, OR) was used to quantify the percentage and mean fluorescence intensity of the FITC-OVA+-labeled cells.

[2] = molecular target: stabilin-2 scavenger receptor on liver sinusoidal endothelial cells (LSECs) (mouse, UniProt Q8R4U0 29-2559); test: cell-based or functional assay
[3] = molecular target: stabilin-1 scavenger receptor on liver sinusoidal endothelial cells (LSECs) (mouse, UniProt Q8R4Y4 26-2571); test: cell-based or functional assay
[4] = test system: mice; test: Biodistribution of DyLight680-OVA NPs after IV injection, ex vivo IVIS imaging; parameters: species or system mouse; conditions: 25 μg OVA in 500 μg NPs per animal, 24 h
Description: Panel (B): Confocal microscopy to show the intrahepatic distribution of free or encapsulated labeled OVA. […] The red and green fluorescence colors represent DyLight680-labeled OVA and isolectin B4 stained LSECs, respectively. Scale bars correspond to 50 μm. Data are expressed as the mean±SEM (n=6); *p<0.05; **p<0.01; ***[…] (one-way ANOVA followed by Tukey's test).
FIG. 17A schematically illustrates two main strategies for inducing immune tolerance. Strategy 1 depicts a liver-targeting nanoparticle for allergen delivery to LSEC in the liver, where allergen processing and presentation to naïve T-cells induce antigen-specific Foxp3^+ Tregs, which are recruited to the site of allergic inflammation in the lung. […] FIG. 17B schematically illustrates the PLGA nanoparticle synthesis process, including carrier loading with cargo (allergen, epitopes, pharmaceutical agents), by a w/o/w double emulsion method combined with solvent removal. […] The red and green fluorescence colors represent Dylight680-labeled OVA and isolectin B4 stained LSECs, respectively. […]
The near-infrared fluorescent dye, DyLight680 (ex=692, em=712), was used to label OVA, which was subsequently encapsulated in the NPs. […] The data were analyzed using Living Image software (PerkinElmer, version 4.5) and were expressed as the fluorescence intensity in the region of interest. […]

Chain of stabilin-1 scavenger receptor on liver sinusoidal endothelial cells (LSECs) (Q8R4Y4 26-2571): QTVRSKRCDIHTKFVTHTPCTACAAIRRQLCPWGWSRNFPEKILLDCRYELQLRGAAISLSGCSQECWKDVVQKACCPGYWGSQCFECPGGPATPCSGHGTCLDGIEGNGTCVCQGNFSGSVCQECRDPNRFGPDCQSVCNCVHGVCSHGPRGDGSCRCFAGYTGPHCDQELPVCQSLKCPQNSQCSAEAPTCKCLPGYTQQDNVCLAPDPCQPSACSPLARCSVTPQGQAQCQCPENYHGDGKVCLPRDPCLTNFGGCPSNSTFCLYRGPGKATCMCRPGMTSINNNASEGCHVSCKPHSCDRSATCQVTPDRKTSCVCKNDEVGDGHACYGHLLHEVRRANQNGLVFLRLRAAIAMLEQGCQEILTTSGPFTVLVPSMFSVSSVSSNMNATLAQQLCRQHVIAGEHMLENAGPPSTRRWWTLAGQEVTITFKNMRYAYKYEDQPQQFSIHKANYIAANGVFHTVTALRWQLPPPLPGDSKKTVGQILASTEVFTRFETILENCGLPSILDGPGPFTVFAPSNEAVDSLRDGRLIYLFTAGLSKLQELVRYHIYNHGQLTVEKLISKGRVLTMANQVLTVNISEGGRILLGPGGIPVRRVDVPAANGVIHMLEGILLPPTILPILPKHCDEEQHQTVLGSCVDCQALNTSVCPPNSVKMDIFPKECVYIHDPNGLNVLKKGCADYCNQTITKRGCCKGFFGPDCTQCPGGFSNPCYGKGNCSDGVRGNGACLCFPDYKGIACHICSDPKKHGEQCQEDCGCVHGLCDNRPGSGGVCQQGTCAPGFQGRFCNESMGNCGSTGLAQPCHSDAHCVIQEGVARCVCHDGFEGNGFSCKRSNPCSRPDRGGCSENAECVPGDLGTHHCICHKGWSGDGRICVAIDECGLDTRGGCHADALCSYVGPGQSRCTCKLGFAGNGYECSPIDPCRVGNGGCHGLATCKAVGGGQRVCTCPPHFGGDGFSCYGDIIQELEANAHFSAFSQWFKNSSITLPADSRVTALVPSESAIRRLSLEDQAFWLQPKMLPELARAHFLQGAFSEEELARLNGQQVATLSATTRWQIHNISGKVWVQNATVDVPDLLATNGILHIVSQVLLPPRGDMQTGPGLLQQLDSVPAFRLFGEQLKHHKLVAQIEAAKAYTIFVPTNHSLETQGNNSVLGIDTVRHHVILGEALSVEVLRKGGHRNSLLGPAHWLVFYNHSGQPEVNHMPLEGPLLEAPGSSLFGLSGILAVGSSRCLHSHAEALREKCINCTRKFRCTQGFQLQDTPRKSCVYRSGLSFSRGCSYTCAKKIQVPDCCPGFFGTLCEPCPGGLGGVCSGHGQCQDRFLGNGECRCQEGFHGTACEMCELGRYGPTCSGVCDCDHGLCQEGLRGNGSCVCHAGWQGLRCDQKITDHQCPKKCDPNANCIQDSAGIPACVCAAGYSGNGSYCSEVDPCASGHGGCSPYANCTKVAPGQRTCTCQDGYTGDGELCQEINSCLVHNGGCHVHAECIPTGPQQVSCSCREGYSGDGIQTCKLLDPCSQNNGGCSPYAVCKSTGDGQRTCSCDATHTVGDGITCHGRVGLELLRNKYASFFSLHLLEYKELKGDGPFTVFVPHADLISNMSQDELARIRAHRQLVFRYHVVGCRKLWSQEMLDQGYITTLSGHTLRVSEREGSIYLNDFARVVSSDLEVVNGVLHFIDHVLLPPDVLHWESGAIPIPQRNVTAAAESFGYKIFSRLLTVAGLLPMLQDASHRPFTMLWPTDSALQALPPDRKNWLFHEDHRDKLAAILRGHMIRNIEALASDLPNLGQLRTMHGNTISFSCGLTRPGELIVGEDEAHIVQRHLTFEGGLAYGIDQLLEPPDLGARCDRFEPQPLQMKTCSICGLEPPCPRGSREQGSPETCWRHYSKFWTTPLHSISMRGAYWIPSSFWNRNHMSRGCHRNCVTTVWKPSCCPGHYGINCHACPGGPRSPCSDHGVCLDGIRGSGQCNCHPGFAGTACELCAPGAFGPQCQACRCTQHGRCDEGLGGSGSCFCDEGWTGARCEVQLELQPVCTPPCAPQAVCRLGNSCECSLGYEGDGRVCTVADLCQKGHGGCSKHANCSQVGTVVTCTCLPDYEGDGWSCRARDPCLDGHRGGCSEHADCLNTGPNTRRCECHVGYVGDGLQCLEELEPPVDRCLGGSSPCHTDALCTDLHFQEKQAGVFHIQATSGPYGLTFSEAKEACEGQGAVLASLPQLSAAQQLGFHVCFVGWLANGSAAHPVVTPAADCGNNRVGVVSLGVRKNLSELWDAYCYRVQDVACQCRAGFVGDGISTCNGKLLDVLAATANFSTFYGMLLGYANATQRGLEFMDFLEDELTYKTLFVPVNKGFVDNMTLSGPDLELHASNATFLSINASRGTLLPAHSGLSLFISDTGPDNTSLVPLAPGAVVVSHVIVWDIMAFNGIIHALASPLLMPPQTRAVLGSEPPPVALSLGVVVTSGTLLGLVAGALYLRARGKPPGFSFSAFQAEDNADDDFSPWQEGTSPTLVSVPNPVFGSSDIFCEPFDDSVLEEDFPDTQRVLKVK
Chain of stabilin-2 scavenger receptor on liver sinusoidal endothelial cells (LSECs) (Q8R4U0 29-2559): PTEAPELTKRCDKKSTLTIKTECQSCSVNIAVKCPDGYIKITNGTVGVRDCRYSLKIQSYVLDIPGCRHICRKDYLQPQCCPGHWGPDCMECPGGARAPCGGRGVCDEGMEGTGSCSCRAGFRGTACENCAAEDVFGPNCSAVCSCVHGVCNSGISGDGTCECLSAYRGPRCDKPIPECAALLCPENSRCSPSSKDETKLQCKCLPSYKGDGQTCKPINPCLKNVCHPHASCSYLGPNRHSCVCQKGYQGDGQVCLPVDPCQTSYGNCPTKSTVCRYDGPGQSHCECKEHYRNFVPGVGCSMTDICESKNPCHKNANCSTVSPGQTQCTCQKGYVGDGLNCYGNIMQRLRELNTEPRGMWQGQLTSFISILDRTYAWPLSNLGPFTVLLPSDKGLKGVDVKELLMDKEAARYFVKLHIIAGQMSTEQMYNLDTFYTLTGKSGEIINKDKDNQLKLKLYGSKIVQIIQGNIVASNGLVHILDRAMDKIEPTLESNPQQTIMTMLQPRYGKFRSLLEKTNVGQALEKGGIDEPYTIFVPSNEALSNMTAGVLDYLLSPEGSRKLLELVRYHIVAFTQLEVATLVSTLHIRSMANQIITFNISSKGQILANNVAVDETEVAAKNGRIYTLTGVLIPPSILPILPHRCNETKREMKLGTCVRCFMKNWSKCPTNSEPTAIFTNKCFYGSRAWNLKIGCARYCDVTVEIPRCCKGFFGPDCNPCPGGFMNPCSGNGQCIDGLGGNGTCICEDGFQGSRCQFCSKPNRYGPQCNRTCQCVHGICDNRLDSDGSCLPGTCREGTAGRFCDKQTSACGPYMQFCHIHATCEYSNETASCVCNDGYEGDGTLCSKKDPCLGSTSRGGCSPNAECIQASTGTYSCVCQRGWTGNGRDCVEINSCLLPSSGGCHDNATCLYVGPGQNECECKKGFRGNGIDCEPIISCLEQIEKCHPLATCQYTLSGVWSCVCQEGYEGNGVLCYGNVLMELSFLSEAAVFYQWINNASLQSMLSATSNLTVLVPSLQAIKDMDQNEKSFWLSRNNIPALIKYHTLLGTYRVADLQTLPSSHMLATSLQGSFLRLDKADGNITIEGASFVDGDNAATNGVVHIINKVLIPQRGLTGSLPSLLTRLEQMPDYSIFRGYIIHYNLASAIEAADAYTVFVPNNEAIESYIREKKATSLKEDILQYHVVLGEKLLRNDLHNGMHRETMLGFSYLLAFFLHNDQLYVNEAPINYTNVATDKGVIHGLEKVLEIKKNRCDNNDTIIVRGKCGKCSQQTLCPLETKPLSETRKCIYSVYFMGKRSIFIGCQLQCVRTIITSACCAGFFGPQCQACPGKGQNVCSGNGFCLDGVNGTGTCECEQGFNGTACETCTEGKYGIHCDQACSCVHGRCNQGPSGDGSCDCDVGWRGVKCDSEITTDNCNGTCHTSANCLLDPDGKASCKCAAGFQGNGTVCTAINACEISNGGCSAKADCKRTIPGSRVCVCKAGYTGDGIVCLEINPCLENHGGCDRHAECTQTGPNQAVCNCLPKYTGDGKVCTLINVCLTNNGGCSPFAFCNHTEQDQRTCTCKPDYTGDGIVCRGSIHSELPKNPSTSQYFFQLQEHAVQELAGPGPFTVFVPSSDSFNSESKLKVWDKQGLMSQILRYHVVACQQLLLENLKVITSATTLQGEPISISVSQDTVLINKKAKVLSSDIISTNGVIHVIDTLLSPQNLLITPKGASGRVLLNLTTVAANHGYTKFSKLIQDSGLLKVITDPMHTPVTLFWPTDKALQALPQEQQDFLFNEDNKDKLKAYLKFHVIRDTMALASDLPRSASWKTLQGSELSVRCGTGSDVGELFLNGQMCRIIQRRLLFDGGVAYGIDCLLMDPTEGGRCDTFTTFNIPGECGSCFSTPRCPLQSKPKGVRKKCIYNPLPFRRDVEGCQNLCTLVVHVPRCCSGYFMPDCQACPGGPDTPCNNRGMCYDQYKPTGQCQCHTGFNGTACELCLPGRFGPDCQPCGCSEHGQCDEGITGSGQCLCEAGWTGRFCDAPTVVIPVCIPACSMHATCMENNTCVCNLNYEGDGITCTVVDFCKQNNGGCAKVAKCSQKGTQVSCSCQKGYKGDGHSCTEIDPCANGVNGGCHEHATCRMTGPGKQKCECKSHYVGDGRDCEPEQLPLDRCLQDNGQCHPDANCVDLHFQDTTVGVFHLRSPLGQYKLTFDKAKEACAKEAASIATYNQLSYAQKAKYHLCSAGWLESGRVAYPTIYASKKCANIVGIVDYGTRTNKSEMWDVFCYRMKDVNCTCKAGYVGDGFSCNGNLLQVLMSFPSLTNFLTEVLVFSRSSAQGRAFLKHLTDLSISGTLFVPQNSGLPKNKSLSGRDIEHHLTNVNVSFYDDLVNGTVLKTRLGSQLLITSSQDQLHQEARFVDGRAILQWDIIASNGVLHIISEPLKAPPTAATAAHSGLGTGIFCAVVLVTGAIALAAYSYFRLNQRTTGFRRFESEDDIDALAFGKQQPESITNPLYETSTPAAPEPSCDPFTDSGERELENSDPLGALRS

Molecule: FITC-OVA: fluorescein isothiocyanate (FITC)-labeled OVA, not encapsulated
NP-mediated FITC-OVA uptake (OVA fluorescence intensity) [1]: No significant uptake

percentage of OVA-positive LSECs (flow cytometry, uptake of nanoparticle-encapsulated FITC-OVA) [2]: ~2 fold
percentage of OVA-positive LSECs (flow cytometry, uptake of nanoparticle-encapsulated FITC-OVA) [3]: ~2 fold
B1: ApoB peptide (ApoBP), RLYRKRGLK, containing a GGC tag, conjugated to the surface of OVA-encapsulating PLGA nanoparticles (peptide)
peptide: RLYRKRGLK
modifications: also: GGC tag at one end, orientation unclear, tag Cys thioether-linked to maleimide (NAEM) on PLGA nanoparticle

B2: non-encapsulated fluorescent OVA: DyLight680-labeled ovalbumin injected free, not encapsulated (protein, UniProt P01012 2-386, looked up)
Ovalbumin: GSIGAASMEFCFDVFKELKVHHANENIFYCPIAIMSALAMVYLGAKDSTRTQINKVVRFDKLPGFGDSIEAQCGTSVNVHSSLRDILNQITKPNDVYSFSLASRLYAEERYPILPEYLQCVKELYRGGLEPINFQTAADQARELINSWVESQTNGIIRNVLQPSSVDSQTAMVLVNAIVFKGLWEKAFKDEDTQAMPFRVTEQESKPVQMMYQIGLFRVASMASEKMKILELPFASGTMSMLVLLPDEVSGLEQLESIINFEKLTEWTSSNVMEERKIKVYLPRMKMEEKYNLTSVLMAMGITDVFSSSANLSGISSAESLKISQAVHAAHAEINEAGREVVGSAEAGVDAASVSEEFRADHPFLFCIKHIATNAVLFFGRCVSP
modifications: DyLight680 label
organ distribution of labeled OVA (IVIS) [4]: kidney
